The text below walks through data of the supplement of paper PMC10724198.

± gives the standard deviation of the averaged measurements.

The data set deals with Saccharomyces cerevisiae. Briefly: protein stability index of tFT-peptide fusion (C-terminal peptide) (PSI (0-1 scale)); higher = more stable (slower turnover). Particulars: temperature: 30 C. As for the experimental part:
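MPS profiling in S. cerevisiae of the yeast C-terminome library: the last 12 aa of each annotated ORF are fused to the C-terminus of a sfGFP-mCherry timer, after a GGGS linker. Cells are FACS-sorted into 8 mCherry/sfGFP bins and deep-sequenced. PSI runs from 0 (unstable) to 1 (stable); wild type and das1Δ backgrounds, two technical replicates each.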

The mark [1] stands for this setting: genetic background: das1 deletion.

NDNHNPFYIREE [CDC26 C-terminal 12 aa]: the protein stability index came out at 0.723 ± 0.021 under setting [1] and 0.705 ± 0.049 (genetic background: wild type).

On to NEKLSRESKGSE [SYF2 C-terminal 12 aa], for which the protein stability index worked out at 0.687 ± 0.01 under setting [1] and 0.691 ± 0.014 (genetic background: wild type).

With NENEFIAICTDS [CDC31 C-terminal 12 aa], the protein stability index turned out to be 0.698 ± 0.02 under setting [1] and 0.695 ± 0.022 (genetic background: wild type).

On to NENIHSLIGNSY [NNF2 C-terminal 12 aa], for which the protein stability index runs as follows: under setting [1], 0.702 ± 0.023; (genetic background: wild type) 0.693 ± 0.0087.

As for NENSEIISIDED [CTR86 C-terminal 12 aa], the protein stability index under setting [1] is 0.676 ± 0.0078 and the protein stability index (genetic background: wild type) was 0.65 ± 0.023.

Turning to NFQREVIDNSKL [LDH1 C-terminal 12 aa], the protein stability index under setting [1] was 0.697 ± 0.015 and the protein stability index (genetic background: wild type) was 0.719 ± 0.067.

For NGKKNEAYEGFV [EXP1 C-terminal 12 aa], the protein stability index by setting is: under setting [1], 0.699 ± 0.015; (genetic background: wild type) 0.722 ± 0.014.

For the sequence NIIHSGDVLLAE [LEU9 C-terminal 12 aa], the protein stability index under setting [1] came out at 0.677 ± 0.019 and the protein stability index (genetic background: wild type) was determined as 0.708 ± 0.035.

NILKVDSNSSSS [RGR1 C-terminal 12 aa] yielded a protein stability index under setting [1] of 0.7201 ± 0.0019 and a protein stability index (genetic background: wild type) of 0.702 ± 0.029.

Turning to NKGPPCKTSALL [HMG2 C-terminal 12 aa], the protein stability index under setting [1] was found to be 0.739 ± 0.023 and the protein stability index (genetic background: wild type) stood at 0.668 ± 0.011.

For the sequence NKNLHGINTNEF [TRE1 C-terminal 12 aa], the protein stability index is, setting by setting: under setting [1], 0.7067 ± 0.0039; (genetic background: wild type) 0.6665 ± 0.0019.

“NLPFYKNQATLQ [YBR131C-A C-terminal 12 aa]”: the protein stability index by setting is: under setting [1], 0.6902 ± 0.005; (genetic background: wild type) 0.707 ± 0.031.

With NLRADSFLQYPL [YDR029W C-terminal 12 aa], the protein stability index reads like this: under setting [1], 0.704 ± 0.0075; (genetic background: wild type) 0.714 ± 0.021.

As for NNKSIQKVNSPS [PAC2 C-terminal 12 aa], the protein stability index was determined as 0.709 ± 0.0075 under setting [1] and 0.807 ± 0.035 (genetic background: wild type).

Turning to NPHPRIQMKMSV [CDC21 C-terminal 12 aa], the protein stability index was 0.663 ± 0.035 under setting [1] and 0.624 ± 0.048 (genetic background: wild type).

Take NPPERAKVNARS [RCR1 C-terminal 12 aa]: the protein stability index was determined as 0.675 ± 0.017 under setting [1] and 0.68 ± 0.042 (genetic background: wild type).

Turning to “NPSLRQSRIQGW [YGR161W-C C-terminal 12 aa]”, the protein stability index was found to be 0.725 ± 0.005 under setting [1] and 0.731 ± 0.034 (genetic background: wild type).

For the sequence NPTALEKGIKDL [TRX3 C-terminal 12 aa], the protein stability index turned out to be 0.714 ± 0.025 under setting [1] and 0.69 ± 0.016 (genetic background: wild type).

Consider NPVVNRHIEHDD [COX13 C-terminal 12 aa], for which the protein stability index came to 0.701 ± 0.011 under setting [1] and 0.707 ± 0.017 (genetic background: wild type).

With NRPGKSRRARRF [EBP2 C-terminal 12 aa], the protein stability index is, setting by setting: under setting [1], 0.694 ± 0.026; (genetic background: wild type) 0.668 ± 0.016.

NSAGLLTLEYLS [TFC6 C-terminal 12 aa]: the protein stability index was 0.696 ± 0.012 under setting [1] and 0.719 ± 0.036 (genetic background: wild type).

For NSKSNGNLFNSQ [NDD1 C-terminal 12 aa], the protein stability index turned out to be 0.72 ± 0.015 under setting [1] and 0.682 ± 0.015 (genetic background: wild type).

For NTSLLFKKWEGS [CEM1 C-terminal 12 aa], the protein stability index is, setting by setting: under setting [1], 0.707 ± 0.01; (genetic background: wild type) 0.702 ± 0.04.

For the sequence NTSTYGQTVQPV [YLR456W C-terminal 12 aa], the protein stability index came to 0.6791 ± 0.00098 under setting [1] and 0.678 ± 0.041 (genetic background: wild type).

In the case of NVSDLFQWQNAK [CAT8 C-terminal 12 aa], the protein stability index turned out to be 0.744 ± 0.017 under setting [1] and 0.683 ± 0.047 (genetic background: wild type).

Take NVTAVKALNECF [SKI3 C-terminal 12 aa]: the protein stability index is, setting by setting: under setting [1], 0.6887 ± 0.0054; (genetic background: wild type) 0.652 ± 0.026.

Turning to NWDQHNPRNSIH [IRC10 C-terminal 12 aa], the protein stability index runs as follows: under setting [1], 0.719 ± 0.013; (genetic background: wild type) 0.78 ± 0.067.

Turning to NYTLTVENKNKV [SPC3 C-terminal 12 aa], the protein stability index was 0.693 ± 0.051 under setting [1] and 0.734 ± 0.03 (genetic background: wild type).

With PAAIKQAIAANA [TRX1 C-terminal 12 aa], the protein stability index reads like this: under setting [1], 0.45 ± 0.014; (genetic background: wild type) 0.489 ± 0.013.

Consider PAAVFTETLKHD [RPL4A C-terminal 12 aa], for which the protein stability index reads like this: under setting [1], 0.7 ± 0.016; (genetic background: wild type) 0.7 ± 0.022.

As for PAETTDEGWTMI [ATG26 C-terminal 12 aa], the protein stability index is, setting by setting: under setting [1], 0.704 ± 0.023; (genetic background: wild type) 0.68 ± 0.014.

On to PDLPSTIKPLAD [BCH2 C-terminal 12 aa], for which the protein stability index was 0.693 ± 0.018 under setting [1] and 0.693 ± 0.0094 (genetic background: wild type).

Take PIALTMFQRWAS [UPA1 C-terminal 12 aa]: the protein stability index reads like this: under setting [1], 0.688 ± 0.01; (genetic background: wild type) 0.498 ± 0.038.

Take “PIRRQFYLNSRQ [YML047W-A C-terminal 12 aa]”: the protein stability index was 0.701 ± 0.011 under setting [1] and 0.691 ± 0.017 (genetic background: wild type).

Regarding PISPIGNAGSQI [MIN10 C-terminal 12 aa], the protein stability index amounted to 0.696 ± 0.00098 under setting [1] and 0.6629 ± 0.0022 (genetic background: wild type).

Take PISSKYTDGKKR [YPL205C C-terminal 12 aa]: the protein stability index was 0.686 ± 0.012 under setting [1] and 0.695 ± 0.013 (genetic background: wild type).

Consider PLQRNSNVSHHL [MPH2 C-terminal 12 aa], for which the protein stability index was found to be 0.69243 ± 0.00056 under setting [1] and 0.7038 ± 0.0037 (genetic background: wild type).

PMGDIPVHLFKR [ACF4 C-terminal 12 aa]: the protein stability index reads like this: under setting [1], 0.709 ± 0.013; (genetic background: wild type) 0.729 ± 0.014.

Turning to PNKDVEQGNDMV [AKR1 C-terminal 12 aa], the protein stability index reads like this: under setting [1], 0.6883 ± 0.00087; (genetic background: wild type) 0.695 ± 0.05.

PQDKPAGQSIWL [HRR25 C-terminal 12 aa]: the protein stability index is, setting by setting: under setting [1], 0.6795 ± 0.00075; (genetic background: wild type) 0.6948 ± 0.0048.

Turning to PREGRLDKTPTY [KAR9 C-terminal 12 aa], the protein stability index runs as follows: under setting [1], 0.706 ± 0.008; (genetic background: wild type) 0.704 ± 0.036.

For the sequence PRPACGVIGLTN [SOD1 C-terminal 12 aa], the protein stability index reads like this: under setting [1], 0.713 ± 0.03; (genetic background: wild type) 0.726 ± 0.008.

With PSRVALVLALKE [GLC3 C-terminal 12 aa], the protein stability index worked out at 0.6875 ± 0.0016 under setting [1] and 0.747 ± 0.029 (genetic background: wild type).

Regarding PVIYGLPIKFVS [ESP1 C-terminal 12 aa], the protein stability index is, setting by setting: under setting [1], 0.7014 ± 0.0052; (genetic background: wild type) 0.389 ± 0.0063.

Sequence QAERQLYDAYFH [YFL064C C-terminal 12 aa] gave a protein stability index under setting [1] of 0.732 ± 0.023 and a protein stability index (genetic background: wild type) of 0.733 ± 0.038.

With QASSEKKWYKFW [COX20 C-terminal 12 aa], the protein stability index reads like this: under setting [1], 0.755 ± 0.018; (genetic background: wild type) 0.6753 ± 0.0053.

Consider QGILMAKQYHIK [YSA1 C-terminal 12 aa], for which the protein stability index runs as follows: under setting [1], 0.714 ± 0.018; (genetic background: wild type) 0.702 ± 0.02.

For QGKTFYETVAKF [PST2 C-terminal 12 aa], the protein stability index was 0.77 ± 0.03 under setting [1] and 0.776 ± 0.017 (genetic background: wild type).

In the case of QHQQENPNLIDI [YAP1802 C-terminal 12 aa], the protein stability index was found to be 0.707 ± 0.024 under setting [1] and 0.734 ± 0.063 (genetic background: wild type).

On to QIDDVNILKKNP [LIP2 C-terminal 12 aa], for which the protein stability index runs as follows: under setting [1], 0.709 ± 0.009; (genetic background: wild type) 0.702 ± 0.053.
